Assay results taken from article PMC9472817, “Structural and functional characterisation of a stable, broad-specificity multimeric sialidase from the oral pathogen Tannerella forsythia” (Biochemical Journal, 2022).

Biological target: NanH sialidase of Tannerella forsythia (wild type) (Tannerella forsythia 92A.2)
Assay: SEC-MALS; NanH at 0.5 and 3.0 mg/ml on Superdex S200 10/300 in 50 mM sodium phosphate, 200 mM NaCl pH 7.4, ~20°C; self-association

NanH sialidase of Tannerella forsythia (wild type) (enzyme)
percent of the protein as dimer: 90%
stoichiometry N: 2
